Experiments:
Assay in all cases: cell-based or functional assay
[1] = target: HIV-1 Env of 0260.v5.c36 (HIV-1)
[2] = target: HIV-1 Env of 3016.V5.c36 (HIV-1)
[3] = target: HIV-1 Env of 6405.v4.c34 (HIV-1)
[4] = target: HIV-1 Env of 6535.3 (HIV-1)
[5] = target: HIV-1 Env of 96ZM651.02 (HIV-1)
[6] = target: HIV-1 Env of AC10.29 (HIV-1)
[7] = target: HIV-1 Env of BG505.w6m (HIV-1)
[8] = target: HIV-1 Env of C1080.c3 (HIV-1)
[9] = target: HIV-1 Env of CAAN.A2 (HIV-1)
[10] = target: HIV-1 Env of CAP210.E8 (HIV-1)
[11] = target: HIV-1 Env of CAP244.D3 (HIV-1)
[12] = target: HIV-1 Env of CAP256.PI (HIV-1)
[13] = target: HIV-1 Env of CAP256.SU (HIV-1)
[14] = target: HIV-1 Env of CAP45.G3 (HIV-1)
[15] = target: HIV-1 Env of CM244.ec1 (HIV-1)
[16] = target: HIV-1 Env of CNE3 (HIV-1)
[17] = target: HIV-1 Env of DU156.12 (HIV-1)
[18] = target: HIV-1 Env of DU172.17 (HIV-1)
[19] = target: HIV-1 Env of DU422.01 (HIV-1)
[20] = target: HIV-1 Env of KER2008.12 (HIV-1)
[21] = target: HIV-1 Env of KER2018.11 (HIV-1)
[22] = target: HIV-1 Env of MB201 (HIV-1)
[23] = target: HIV-1 Env of MB539.2B7 (HIV-1)
[24] = target: HIV-1 Env of PVO.04 (HIV-1)
[25] = target: HIV-1 Env of Q168.a2 (HIV-1)
[26] = target: HIV-1 Env of Q23.17 (HIV-1)
[27] = target: HIV-1 Env of Q259.d2.17 (HIV-1)
[28] = target: HIV-1 Env of Q461.e2 (HIV-1)
[29] = target: HIV-1 Env of Q769.d22 (HIV-1)
[30] = target: HIV-1 Env of Q842.d12 (HIV-1)
[31] = target: HIV-1 Env of QH0692.42 (HIV-1)
[32] = target: HIV-1 Env of REJO.67 (HIV-1)
[33] = target: HIV-1 Env of RHPA.7 (HIV-1)
[34] = target: HIV-1 Env of RW020.2 (HIV-1)
[35] = target: HIV-1 Env of SC422.8 (HIV-1)
[36] = target: HIV-1 Env of TH976.17 (HIV-1)
[37] = target: HIV-1 Env of THRO.18 (HIV-1)
[38] = target: HIV-1 Env of TRJO.58 (HIV-1)
[39] = target: HIV-1 Env of TRO.11 (HIV-1)
[40] = target: HIV-1 Env of UG037.8 (HIV-1)
[41] = target: HIV-1 Env of WITO.33 (HIV-1)
[42] = target: HIV-1 Env of ZM109.4 (HIV-1)
[43] = target: HIV-1 Env of ZM135.10a (HIV-1)
[44] = target: HIV-1 Env of ZM197.7 (HIV-1)
[45] = target: HIV-1 Env of ZM214.15 (HIV-1)
[46] = target: HIV-1 Env of ZM233.6 (HIV-1)
[47] = target: HIV-1 Env of ZM249.1 (HIV-1)
[48] = target: HIV-1 Env of ZM53.12 (HIV-1)

**Q.** What does the source list for CAP256-VRC26.31 (antibody)?
**A.** IC50 (neutralization, TZM-bl) [1]: > 50 µg/mL; IC50 (neutralization, TZM-bl) [2]: > 50 µg/mL; IC50 (neutralization, TZM-bl) [3]: > 50 µg/mL; IC50 (neutralization, TZM-bl) [4]: > 50 µg/mL; IC50 (neutralization, TZM-bl) [5]: > 50 µg/mL; IC50 (neutralization, TZM-bl) [6]: > 50 µg/mL; IC50 (neutralization, TZM-bl) [7]: > 50 µg/mL; IC50 (neutralization, TZM-bl) [8]: 1.67 µg/mL; IC50 (neutralization, TZM-bl) [9]: > 50 µg/mL; IC50 (neutralization, TZM-bl) [10]: 0.003 µg/mL; IC50 (neutralization, TZM-bl) [11]: > 50 µg/mL; IC50 (neutralization, TZM-bl) [12]: > 50 µg/mL; IC50 (neutralization, TZM-bl) [13]: < 0.0006 µg/mL; IC50 (neutralization, TZM-bl) [14]: > 50 µg/mL; IC50 (neutralization, TZM-bl) [15]: > 50 µg/mL; IC50 (neutralization, TZM-bl) [16]: > 50 µg/mL; IC50 (neutralization, TZM-bl) [17]: 4.46 µg/mL; IC50 (neutralization, TZM-bl) [18]: > 50 µg/mL; IC50 (neutralization, TZM-bl) [19]: 1.66 µg/mL; IC50 (neutralization, TZM-bl) [20]: > 50 µg/mL; IC50 (neutralization, TZM-bl) [21]: 0.002 µg/mL; IC50 (neutralization, TZM-bl) [22]: > 50 µg/mL; IC50 (neutralization, TZM-bl) [23]: > 50 µg/mL; IC50 (neutralization, TZM-bl) [24]: > 50 µg/mL; IC50 (neutralization, TZM-bl) [25]: 4.16 µg/mL; IC50 (neutralization, TZM-bl) [26]: > 50 µg/mL; IC50 (neutralization, TZM-bl) [27]: 0.262 µg/mL; IC50 (neutralization, TZM-bl) [28]: > 50 µg/mL; IC50 (neutralization, TZM-bl) [29]: > 50 µg/mL; IC50 (neutralization, TZM-bl) [30]: > 50 µg/mL; IC50 (neutralization, TZM-bl) [31]: > 50 µg/mL; IC50 (neutralization, TZM-bl) [32]: > 50 µg/mL; IC50 (neutralization, TZM-bl) [33]: > 50 µg/mL; IC50 (neutralization, TZM-bl) [34]: > 50 µg/mL; IC50 (neutralization, TZM-bl) [35]: > 50 µg/mL; IC50 (neutralization, TZM-bl) [36]: > 50 µg/mL; IC50 (neutralization, TZM-bl) [37]: > 50 µg/mL; IC50 (neutralization, TZM-bl) [38]: > 50 µg/mL; IC50 (neutralization, TZM-bl) [39]: > 50 µg/mL; IC50 (neutralization, TZM-bl) [40]: > 50 µg/mL; IC50 (neutralization, TZM-bl) [41]: > 50 µg/mL; IC50 (neutralization, TZM-bl) [42]: > 50 µg/mL; IC50 (neutralization, TZM-bl) [43]: > 50 µg/mL; IC50 (neutralization, TZM-bl) [44]: 3.22 µg/mL; IC50 (neutralization, TZM-bl) [45]: > 50 µg/mL; IC50 (neutralization, TZM-bl) [46]: 0.74 µg/mL; IC50 (neutralization, TZM-bl) [47]: > 50 µg/mL; IC50 (neutralization, TZM-bl) [48]: < 0.0006 µg/mL

Reference: patent US20200199204A1
